The chains are these.
B1: 5572 (antibody, V domains shown)
VH: QVQLVQSGAEVKKPGSSVKVSCKASGGTFSSYAISWVRQAPGQGLEWMGSIIPIFGTANYAQKFQGRVTITADESTSTAYMELSSLRSEDTAVYYCARSGGTKYGMLDVWGQGTMVTVSS
VL: EIVMTQSPATLSVSPGERATLSCRASQSVGSNLAWYQQKPGQAPRLLIYGASTRATGIPARFSGSGSGTEFTLTISSLQSEDFAVYYCQQLYTWPPRTFGGGTKVEIK
notes: anti-BACE1 IgG
B2: 5644 (antibody, V domains shown)
VH: QLQLQESGPGLVKPSETLSLTCTVSGGSISSSSYYWGWIRQPPGKGLEWIGSIYYSGSTYYNPSLKSRVTISVDTSKNQFSLKLSSVTAADTAVYYCARVGHGISYFDLWGRGTLVTVSS
VL: B1 VL with M4L, V13L, G30S, N32Y, G50D, T53K, E70D, Q79E, S80P, L91V
notes: anti-BACE1 IgG
B3: 5883 (antibody, V domains shown)
VH: B1 VH with S50G, F55G, T57G
VL: B1 VL with G30S, Y92I, T93L
notes: anti-BACE1 IgG
B4: hu16F6.v1 (antibody, V domains shown)
VH: EVQLVESGPGLVKPSETLSLTCTVSGNSITSEYAWNWIRQPPGKGLEWIGYISYSGTTSYNPSLKSRVTISVDTSKNQFSLKLSSVTAADTAVYYCARYGYGNPATRYFDVWGQGTLVTVSS
VL: DIQMTQSPSSLSASVGDRVTITCRASKSISKYLAWYQQKPGKAPKLLLYSGSTLQSGVPSRFSGSGSGTDYTLTISSLQPEDFATYYCQQHNEYPWTFGQGTKVEIK
notes: IgG; HC 71 V, 78 F
B5: hu7A4.v11 (antibody, V domains shown)
VH: EVQLVQSGAEVKKPGASVKVSCKASGYTFTDYAMHWVRQAPGQGLEWMGGISTYFGRTNYNQKFKGRVTMTVDTSISTAYMELSRLRSDDTAVYYCARGLSGNYVMDYWGQGTTVTVSS
VL: DIVMTQSPDSLAVSLGERATINCRASESVDSYGNSFMHWYQQKPGQPPKLLIYRASNLESGVPDRFSGSGSRTDFTLTISSLQAEDVAVYYCQQSNEGPPTFGQGTKLEIK
notes: IgG
B6: hu7A4.v10 (antibody, V domains shown)
VH: B5 VH with A24G, V72R
VL: B5 VL
notes: IgG
B7: hu7A4.v9 (antibody, V domains shown)
VH: B5 VH with V72R
VL: B5 VL
notes: IgG
B8: hu7A4.v12 (antibody, V domains shown)
VH: B5 VH with A24G
VL: B5 VL
notes: IgG
B9: hu7A4.v14 (antibody, V domains shown)
VH: B5 VH with A24G
VL: B5 VL with V62I, R72G, G98A
notes: IgG
B10: hu7A4.v7 (antibody, V domains shown)
VH: B5 VH
VL: B5 VL with V62I, R72G
notes: IgG
B11: hu7A4.v13 (antibody, V domains shown)
VH: B5 VH with A24G
VL: B5 VL with R72G, G98A
notes: IgG
B12: hu7A4.v8 (antibody, V domains shown)
VH: B5 VH with A24G
VL: B5 VL with V62I, R72G
notes: IgG
B13: hu15G11.v1 (antibody, V domains shown)
VH: EVQLVQSGAEVKKPGASVKVSCKASGYTFTSYWMHWVRQAPGQRLEWMGEINPTNGRTNYIEKFKSRVTITRDTSASTAYMELSSLRSEDTAVYYCARGTRAYHYWGQGTMVTVSS
VL: DIQMTQSPSSLSASVGDRVTITCRASDNLYSNLAWYQQKPGKAPKLLLYDATNLADGVPSRFSGSGSGTDYTLTISSLQPEDFATYYCQHFWGTPLTFGQGTKVEIK
notes: IgG; HC 48 M, 67 V, 69 I, 71 R, 73 T
B14: hu15G11.v2 (antibody, V domains shown)
VH: B13 VH with R72V
VL: B13 VL
notes: IgG; HC 48 M, 67 V, 69 I, 71 V, 73 T
B15: hu15G11.v4 (antibody, V domains shown)
VH: B13 VH with R72V
VL: B13 VL with A43S, L48V
notes: as for B14
B16: hu15G11.v3 (antibody, V domains shown)
VH: B13 VH
VL: B13 VL with A43S, L48V
notes: as for B13
B17: hu7A4.v1 (antibody, V domains shown)
VH: B5 VH with V72R
VL: B5 VL with R72G
notes: IgG
B18: hu7A4.v4 (antibody, V domains shown)
VH: B5 VH with A24G
VL: B5 VL with R72G
notes: IgG
B19: hu7A4.v6 (antibody, V domains shown)
VH: B5 VH with A24G, V72R
VL: B5 VL with V62I, R72G
notes: IgG
B20: hu7A4.v3 (antibody, V domains shown)
VH: B5 VH
VL: B5 VL with R72G
notes: IgG
B21: hu7A4.v2 (antibody, V domains shown)
VH: B5 VH with A24G, V72R
VL: B5 VL with R72G
notes: IgG

Numbering of substitutions follows the chain as printed.

Results on 21 molecules are retold here after US20180057604A1 (Genentech, published 2018).

As a reminder, the Kd is a measure of binding affinity in units of concentration. Lower therefore signals higher affinity.

T4 sequence (P02786 89-760 G142S): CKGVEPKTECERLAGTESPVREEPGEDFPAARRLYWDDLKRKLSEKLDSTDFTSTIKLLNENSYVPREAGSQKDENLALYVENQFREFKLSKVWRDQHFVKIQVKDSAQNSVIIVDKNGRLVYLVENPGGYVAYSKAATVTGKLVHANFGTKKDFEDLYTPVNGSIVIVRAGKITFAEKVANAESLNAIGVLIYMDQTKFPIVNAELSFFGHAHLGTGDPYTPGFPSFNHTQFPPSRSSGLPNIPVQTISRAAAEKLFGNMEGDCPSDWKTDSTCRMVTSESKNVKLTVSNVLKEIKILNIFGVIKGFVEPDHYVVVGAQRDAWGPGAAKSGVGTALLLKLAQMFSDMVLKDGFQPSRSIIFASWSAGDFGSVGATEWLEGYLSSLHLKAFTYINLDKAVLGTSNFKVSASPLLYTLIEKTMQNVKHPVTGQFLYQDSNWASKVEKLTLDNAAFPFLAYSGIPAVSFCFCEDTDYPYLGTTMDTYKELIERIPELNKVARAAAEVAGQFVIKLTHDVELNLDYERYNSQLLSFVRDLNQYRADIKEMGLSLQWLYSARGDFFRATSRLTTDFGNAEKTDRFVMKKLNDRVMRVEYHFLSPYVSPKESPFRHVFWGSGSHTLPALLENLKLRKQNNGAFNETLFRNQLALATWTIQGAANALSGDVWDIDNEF
BACE1 in primary mouse cortical neurons, sequence (P56818 46-501): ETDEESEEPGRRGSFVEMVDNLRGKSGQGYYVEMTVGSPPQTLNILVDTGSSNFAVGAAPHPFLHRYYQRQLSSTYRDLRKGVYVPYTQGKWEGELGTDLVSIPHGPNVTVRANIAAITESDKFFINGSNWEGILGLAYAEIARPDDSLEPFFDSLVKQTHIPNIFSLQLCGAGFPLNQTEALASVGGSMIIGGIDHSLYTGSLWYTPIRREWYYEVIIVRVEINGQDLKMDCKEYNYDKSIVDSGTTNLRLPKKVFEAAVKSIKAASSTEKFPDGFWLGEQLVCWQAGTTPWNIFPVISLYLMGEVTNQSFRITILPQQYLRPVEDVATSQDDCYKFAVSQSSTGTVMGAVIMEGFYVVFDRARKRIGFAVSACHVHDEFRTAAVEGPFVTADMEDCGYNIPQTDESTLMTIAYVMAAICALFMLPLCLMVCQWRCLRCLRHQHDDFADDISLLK

In the first experiment the target is T1, murine BACE1 ECD.
T1 construct: analyte of the Octet assay (200 nM) and enzyme of the first short substrate assay
T1 sequence (single chain, as listed by the source limits assumed): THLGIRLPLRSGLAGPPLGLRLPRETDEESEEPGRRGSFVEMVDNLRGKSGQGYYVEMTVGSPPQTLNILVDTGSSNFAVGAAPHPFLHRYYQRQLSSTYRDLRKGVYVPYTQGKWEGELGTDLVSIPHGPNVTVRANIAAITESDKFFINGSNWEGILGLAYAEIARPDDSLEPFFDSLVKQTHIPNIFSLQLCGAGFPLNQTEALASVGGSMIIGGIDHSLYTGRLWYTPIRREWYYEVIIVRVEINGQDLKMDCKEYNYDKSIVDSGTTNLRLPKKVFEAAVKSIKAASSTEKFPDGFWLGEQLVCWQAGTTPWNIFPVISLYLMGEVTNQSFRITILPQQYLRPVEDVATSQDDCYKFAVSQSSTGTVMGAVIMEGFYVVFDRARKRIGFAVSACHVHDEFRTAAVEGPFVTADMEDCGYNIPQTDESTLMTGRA
The experiment in a line: Octet, pH 7.5.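 Note: antibodies captured on anti-human capture biosensor tips, dissociation followed in PBS with BSA buffer, kinetics fitted with a one-to-one binding model.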
As to B1, the equilibrium dissociation constant (Kd) was 2.5 nM.

Take B2: the Kd came out at 17 nM.

In the case of B3, the dissociation constant Kd turned out to be 6.6 nM. This Kd lies about 2.6-fold lower than the previous one.

The target of a further experiment is T2, human BACE1 ECD.
T2 construct: analyte of the Octet assay (200 nM) and enzyme of the first short substrate assay; also called human BACE1 extracellular domain
T2 sequence (single chain, as listed by the source limits assumed): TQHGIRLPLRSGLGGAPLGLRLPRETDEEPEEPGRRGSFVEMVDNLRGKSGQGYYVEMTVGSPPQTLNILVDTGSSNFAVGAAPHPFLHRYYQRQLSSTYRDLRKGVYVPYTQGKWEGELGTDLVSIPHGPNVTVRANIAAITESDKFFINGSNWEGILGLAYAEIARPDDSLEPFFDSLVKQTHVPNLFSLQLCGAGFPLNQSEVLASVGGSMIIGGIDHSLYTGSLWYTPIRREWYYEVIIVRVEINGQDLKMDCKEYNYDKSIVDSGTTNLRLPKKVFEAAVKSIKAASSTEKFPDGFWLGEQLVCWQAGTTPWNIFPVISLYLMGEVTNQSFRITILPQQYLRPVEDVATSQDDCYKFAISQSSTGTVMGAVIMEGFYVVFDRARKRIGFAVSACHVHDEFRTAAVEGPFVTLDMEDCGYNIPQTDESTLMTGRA
The experiment in a line: Octet, pH 7.5. (In general: Biolayer interferometry detects binding as a change in optical thickness at a sensor tip.)
In turn, B1 returned a dissociation constant (Kd) of 0.86 nM. In other words, the sub-nanomolar range.

Molecule B2 yielded a Kd of 15 nM.

B3 gave a Kd of 4.6 nM.

In another experiment the target is T1, murine BACE1 ECD. The experiment in a line: Octet, pH 5.0.
For the molecule B1, the Kd came to 2 nM.

In the case of B2, the affinity, expressed as Kd, was 11 nM. Against the preceding molecule, the Kd is about 5.5-fold higher.

B3 came in with an equilibrium dissociation constant (Kd) of 11 nM.

The next experiment concerns the target T2, human BACE1 ECD. The experiment in a line: Octet, pH 5.0.
The molecule B1 returned a dissociation constant (Kd) of 1.5 nM.

Molecule B2 registered a dissociation constant Kd of 12 nM.

With B3, the Kd came out at 8.7 nM.

In another experiment the target is T3, cyno TfR extracellular domain (analogous construct to human TfR ecd) (cynomolgus monkey, UniProt Q5RDH6 87-760 (Pongo abelii entry)).
T3 construct: also called cynoTfR ecd
T3 chain: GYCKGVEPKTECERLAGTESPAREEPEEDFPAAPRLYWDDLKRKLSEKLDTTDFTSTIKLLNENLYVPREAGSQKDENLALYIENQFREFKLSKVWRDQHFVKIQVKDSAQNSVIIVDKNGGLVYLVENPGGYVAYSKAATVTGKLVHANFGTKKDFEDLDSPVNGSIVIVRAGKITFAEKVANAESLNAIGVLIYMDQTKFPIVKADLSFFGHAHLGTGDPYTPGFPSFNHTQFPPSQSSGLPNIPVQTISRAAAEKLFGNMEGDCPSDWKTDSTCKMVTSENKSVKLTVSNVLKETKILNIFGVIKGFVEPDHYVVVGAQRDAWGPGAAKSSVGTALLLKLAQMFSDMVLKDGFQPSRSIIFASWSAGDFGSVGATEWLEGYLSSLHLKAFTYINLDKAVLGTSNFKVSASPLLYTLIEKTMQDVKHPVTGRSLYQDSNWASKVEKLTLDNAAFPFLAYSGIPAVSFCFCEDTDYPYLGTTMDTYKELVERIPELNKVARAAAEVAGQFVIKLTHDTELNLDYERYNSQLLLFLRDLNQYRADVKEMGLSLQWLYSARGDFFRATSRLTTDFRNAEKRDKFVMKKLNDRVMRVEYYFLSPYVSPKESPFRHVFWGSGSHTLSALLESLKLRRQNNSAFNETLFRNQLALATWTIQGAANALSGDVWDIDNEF
The experiment in a line: SPR, IgG.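 Note: His-tagged TfR captured via immobilized anti-His antibody on a CM5 chip, antibody injected in 3-fold dilution series by single cycle kinetics, 1:1 Langmuir or steady-state fit.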 On the technique in general: In SPR one partner is held on a chip, and binding of the other changes the refractive index at the surface.
Take B4: the affinity, expressed as Kd, was 199 nM.

Take B5: the Kd came out at 0.943 nM. This Kd lies about 210-fold lower than the previous one.

In turn, B6 gave a Kd of 0.505 nM.

For the molecule B7, the affinity, expressed as Kd, was 0.428 nM. The Kd values of the last two molecules are within 1.5-fold of each other.

B8 registered a dissociation constant (Kd) of 2.09 nM.

Regarding B9, the dissociation constant (Kd) turned out to be 15.7 nM.

B10 registered a dissociation constant (Kd) of 1.18 nM.

B11 gave a Kd of 11.4 nM. Compared with the last molecule, the Kd is about 9.7-fold higher.

A further experiment concerns the target T4, human TfR extracellular domain with N-terminal His tag (human, UniProt P02786 89-760).
T4 construct: Biotinylated in some assays; also called huTfR; HuTfR
The experiment in a line: SPR, IgG.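 Note: His-tagged TfR captured via immobilized anti-His antibody on a CM5 chip, antibody injected in 3-fold dilution series by single cycle kinetics, 1:1 Langmuir or steady-state fit.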
In turn, B4 gave a Kd of 18.7 nM.

For the molecule B5, the affinity, expressed as Kd, was 0.156 nM. Compared with the last molecule, the Kd is about 120-fold lower.

The molecule B6 returned a Kd of 0.143 nM.

The molecule B7 came in with a Kd of 0.119 nM.

On to B8, for which the Kd came to 0.2 nM.

B12 yielded a Kd of 1.29 nM.

The molecule B9 yielded a Kd of 1.19 nM. This Kd and that of the molecule before are within 1.5-fold of each other.

B10: the dissociation constant (Kd) amounted to 0.515 nM.

As for B11, the Kd amounted to 1.36 nM.

For a further experiment, the target named is T5, human BACE1 (R&D Systems) (human, UniProt P56817).
T5 construct: recombinant, commercial (R&D Systems)
T5 sequence (P56817 22-457 limits assumed): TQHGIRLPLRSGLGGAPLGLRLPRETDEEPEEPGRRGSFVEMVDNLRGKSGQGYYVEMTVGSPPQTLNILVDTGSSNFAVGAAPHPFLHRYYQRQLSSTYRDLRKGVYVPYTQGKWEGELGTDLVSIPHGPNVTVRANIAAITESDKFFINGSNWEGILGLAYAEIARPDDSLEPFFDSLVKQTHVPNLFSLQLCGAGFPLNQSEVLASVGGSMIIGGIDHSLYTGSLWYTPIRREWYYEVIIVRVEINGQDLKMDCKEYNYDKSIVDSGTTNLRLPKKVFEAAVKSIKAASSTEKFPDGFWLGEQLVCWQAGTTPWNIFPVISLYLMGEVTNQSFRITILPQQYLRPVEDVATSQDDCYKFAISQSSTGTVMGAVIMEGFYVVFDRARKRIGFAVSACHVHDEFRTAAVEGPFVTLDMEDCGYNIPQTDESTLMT
The experiment in a line: SPR (Biacore).
Turning to B1, binding was characterised by a dissociation constant (Kd) of 2.82 nM.

As to B2, the affinity, expressed as Kd, was 13.3 nM.

As for B3, the Kd turned out to be 6.04 nM.

The next experiment has as its target BACE1 in primary mouse cortical neurons (mouse, UniProt P56818 46-501). The experiment in a line: cell-based or functional assay.
In the case of B1, the “IC50, Abeta x-40 in mouse cortical neurons” value amounted to 27.1 nM and the “maximal % inhibition of Abeta x-40” value was 73%.

B2: the “IC50, Abeta x-40 in mouse cortical neurons” value was determined as 8.33 nM and the “maximal % inhibition of Abeta x-40” value turned out to be 72%.

Turning to B3, the “IC50, Abeta x-40 in mouse cortical neurons” value is 9.11 nM and the “maximal % inhibition of Abeta x-40” value amounted to 82%.

Another experiment concerns the target BACE1 (HTRF long substrate and FRET short substrate assays of Example 9D). The experiment in a line: cell-based or functional assay.
With B1, the “EC50, FRET short substrate” value was found to be 15.9 nM and the “EC50, HTRF long substrate” value is 1.28 nM.

For B2, the “EC50, FRET short substrate” value came to 8.47 nM and the “EC50, HTRF long substrate” value is 8.75 nM.

As for B3, the “EC50, FRET short substrate” value was found to be 0.607 nM and the “EC50, HTRF long substrate” value was found to be 5.93 nM.

For the next experiment, the target named is T1, murine BACE1 ECD. The experiment in a line: cell-based or functional assay.
Turning to B1, the “% inhibition of BACE1 activity, short FRET substrate” value (“% inhibition of BACE1 activity” for short) is 77%.

For the molecule B2, the “% inhibition of BACE1 activity” value worked out at 63%.

Regarding B3, the “% inhibition of BACE1 activity” value was -275%.

Another experiment has as its target T2, human BACE1 ECD. The experiment in a line: cell-based or functional assay.
In the case of B1, the “% inhibition of BACE1 activity” value worked out at 75%.

With B2, the “% inhibition of BACE1 activity” value came to 65%.

On to B3, for which the “% inhibition of BACE1 activity” value is -129%.

For a further experiment, the target named is T3, cyno TfR extracellular domain …. The experiment in a line: SPR, IgG.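 Note: His-tagged TfR captured via immobilized anti-His antibody on a CM5 chip, antibody injected in 3-fold dilution series by single cycle kinetics, 1:1 Langmuir or steady-state fit.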 The source holds these as a separate data set.
In turn, B13 gave a Kd of 10.1 nM.

In turn, B14 gave a Kd of 17.6 nM.

Consider B15, for which binding was put at a Kd of 7.04 nM.

B16: the Kd stood at 5.34 nM.

On to B17, for which binding was characterised by a dissociation constant (Kd) of 1.67 nM.

B18 returned a Kd of 3.83 nM.

B19: the dissociation constant (Kd) was 1.06 nM. Against the preceding molecule, the Kd is about 3.6-fold lower.

The molecule B20 came in with a dissociation constant Kd of 2.9 nM.

The molecule B21 returned a Kd of 1.22 nM.

The next experiment addresses T4, human TfR extracellular domain with …. The experiment in a line: SPR, IgG.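 Note: His-tagged TfR captured via immobilized anti-His antibody on a CM5 chip, antibody injected in 3-fold dilution series by single cycle kinetics, 1:1 Langmuir or steady-state fit.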 This is another data set of the same source.
B13 had a Kd of 5.12 nM. In other words, the single-digit nanomolar range.

Molecule B14 showed an equilibrium dissociation constant (Kd) of 9.35 nM.

Molecule B15 yielded a Kd of 3.89 nM. Compared with the last molecule, the Kd is about 2.4-fold lower.

As for B16, binding was characterised by a dissociation constant (Kd) of 4.12 nM.

As to B17, the Kd is 0.279 nM.

B18 returned a Kd of 0.612 nM.

On to B19, for which the equilibrium dissociation constant (Kd) turned out to be 0.26 nM.

As for B20, the dissociation constant (Kd) turned out to be 0.543 nM.

In turn, B21 showed a Kd of 0.232 nM.
